T1: rat CGRP (rat, UniProt P01256 83-119)
T1 peptide (looked up): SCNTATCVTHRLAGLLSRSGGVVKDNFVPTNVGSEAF

T2: human CGRP (human, UniProt P06881 83-119)
T2 peptide (looked up): T1 peptide (looked up) with S1A, N3D, D25N, E35K

B1: C1H1L1 (antibody, human IgG1, kappa, V domains shown)
VH: EVQLVQSGAEVKKPGSSVKVSCKASGYTFSTSWMNWVRQAPGQGLEWMGQIYPGDGYTNYSGKFRGRVTITADKSTSTAYMELSSLRSEDTAVYYCAGDYEALWGQGTTVTVSS
VL: DIVMTQTPLSLPVTPGEPASISCRSSQSLVHSNGNTYFHWYLQKPGQSPQLLIYEVSNRFSGVPDRFSGSGSGTDFTLKISRVEAEDVGVYYCSQSTHVPFTFGQGTKLEIKR
B2: C1H1L2 (antibody, human IgG1, kappa, V domains shown)
VH: B1 VH
VL: B1 VL with N33S
B3: C1H3L2 (antibody, human IgG1, kappa, V domains shown)
VH: B1 VH with S61N, G62V
VL: B1 VL with N33S
B4: C1H2L1 (antibody, human IgG1, kappa, V domains shown)
VH: B1 VH with S61Q
VL: B1 VL
B5: C21H2L2 (antibody, human IgG1, kappa, V domains shown)
VH: EVQLVQSGAEVKKPGASVKVSCKASGYTFTDYYMNWVRQAPGQRLEWIGDINPNQGGTNYNQKFKGRATLTVDKSASTAYMELSSLRSEDTAVYYCASIIIVPNYFDYWGQGTTVTVSS
VL: DIQMTQSPSSLSASVGDRVTITCKASQNVDTNVAWFQQKPGKSPKALIYSASYRYSGVPSRFSGSGSGTDFTLTISSLQPEDFATYYCQQYNNYPYTFGGGTKVEIKR
B6: C28H1L1 (antibody, human IgG1, kappa, V domains shown)
VH: B5 VH with I48M, Q55N, G56V, G57V, N59T, A68V, L70I, N104D
VL: B5 VL with L11V, D30G, T31S, F36Y, N93S
B7: C9H3L1 (antibody, human IgG1, kappa, V domains shown)
VH: EVQLVQSGAEVKKPGASVKVSCKASGYTFTDYYMNWVRQAPGQRLEWMGVINPYQGRTTYNRKFKGRVTITVDKSASTAYMELSSLRSEDTAVYYCASLLIRPHYFDYWGQGTTVTVSS
VL: B5 VL with D30G, F36Y, F83V, Y87H, N93F, G100Q, V104L
B8: C28H7L1 (antibody, human IgG1, kappa, V domains shown)
VH: B5 VH with Q55T, G57V, N59T, N104D
VL: B5 VL with L11V, D30G, T31S, F36Y, N93S
B9: C21H1L2 (antibody, human IgG1, kappa, V domains shown)
VH: B5 VH with Q55N, G56V
VL: B5 VL
B10: C21H4L2 (antibody, human IgG1, kappa, V domains shown)
VH: B5 VH with Q55T
VL: B5 VL
B11: C9H1L1 (antibody, human IgG1, kappa, V domains shown)
VH: B7 VH with Q55N, G56V
VL: B5 VL with D30G, F36Y, F83V, Y87H, N93F, G100Q, V104L
B12: C9H7L1 (antibody, human IgG1, kappa, V domains shown)
VH: B7 VH with Q55T
VL: B5 VL with D30G, F36Y, F83V, Y87H, N93F, G100Q, V104L
B13: C9H4L1 (antibody, human IgG1, kappa, V domains shown)
VH: B7 VH with M48I, V68A, I70L
VL: B5 VL with D30G, F36Y, F83V, Y87H, N93F, G100Q, V104L
B14: C9H2L1 (antibody, human IgG1, kappa, V domains shown)
VH: B7 VH with M48I, Q55N, G56V, V68A, I70L
VL: B5 VL with D30G, F36Y, F83V, Y87H, N93F, G100Q, V104L
B15: C28H4L1 (antibody, human IgG1, kappa, V domains shown)
VH: B5 VH with G57V, N59T, N104D
VL: B5 VL with L11V, D30G, T31S, F36Y, N93S
B16: C28H5L1 (antibody, human IgG1, kappa, V domains shown)
VH: B5 VH with Q55S, G57V, N59T, N104D
VL: B5 VL with L11V, D30G, T31S, F36Y, N93S
B17: C28H3L1 (antibody, human IgG1, kappa, V domains shown)
VH: B5 VH with I48M, G57V, N59T, A68V, L70I, N104D
VL: B5 VL with L11V, D30G, T31S, F36Y, N93S
B18: C21H4L1 (antibody, human IgG1, kappa, V domains shown)
VH: B5 VH with Q55T
VL: B5 VL with S43A, A46S
B19: C9H6L1 (antibody, human IgG1, kappa, V domains shown)
VH: B7 VH with M48I, Q55S, V68A, I70L
VL: B5 VL with D30G, F36Y, F83V, Y87H, N93F, G100Q, V104L
B20: C21H3L1 (antibody, human IgG1, kappa, V domains shown)
VH: B5 VH with I48M, Q55S, A68V, L70I
VL: B5 VL with S43A, A46S
B21: C9H5L1 (antibody, human IgG1, kappa, V domains shown)
VH: B7 VH with Q55S
VL: B5 VL with D30G, F36Y, F83V, Y87H, N93F, G100Q, V104L
B22: C21H1L1 (antibody, human IgG1, kappa, V domains shown)
VH: B5 VH with Q55N, G56V
VL: B5 VL with S43A, A46S
B23: PL-1 (bispecific antibody)
chain 1: not shown
chain 2: DIVLTQSPASLAVSPGQRATITCRASESVSIHGTHLMHWYQQKPGQPPKLLIYAASKLESGVPARFSGSGSGTDFTLTINPVEAEDTANYYCQQSFEDPLTFGQGTKLEIKGGGGSGIPPKIECLPIDISIDEGKVLTVASAFTGEPTPEVTWSTGGRKIHSQEQGRFHIENTDDLTTLIIKDVQKQDGGLYTLTLRNEFGSDSATVNIHIRSI
chain 3: not shown
chain 4: not shown
B24: PL-12 (bispecific antibody)
chain 1: not shown
chain 2: B23 chain 2 with G112R, G113T, G114V, G115A, V136C, L176S, I180T
chain 3: not shown
chain 4: not shown
B25: PL-3 (bispecific antibody)
chain 1: not shown
chain 2: B23 chain 2 with V136C, L176S, I180T
chain 3: not shown
chain 4: not shown
B26: PL-5 (bispecific antibody)
chain 1: not shown
chain 2: B23 chain 2 with L176S, I180T
chain 3: not shown
chain 4: not shown
B27: PL-7 (bispecific antibody)
chain 1: not shown
chain 2: B23 chain 2 with A142C, L176S, I180T
chain 3: not shown
chain 4: not shown
B28: PL-2 (bispecific antibody)
chain 1: not shown
chain 2: B23 chain 2 with L176S, I180T
chain 3: not shown
chain 4: not shown
B29: PL-8 (bispecific antibody)
chain 1: not shown
chain 2: B23 chain 2 with L176S, I180T
chain 3: not shown
chain 4: not shown
B30: PL-11 (bispecific antibody)
chain 1: not shown
chain 2: B23 chain 2 with G112R, G113T, G114V, G115A, L176S, I180T
chain 3: not shown
chain 4: not shown
B31: PL-6 (bispecific antibody)
chain 1: not shown
chain 2: B23 chain 2 with V136C, L176S, I180T
chain 3: not shown
chain 4: not shown
B32: PL-9 (bispecific antibody)
chain 1: not shown
chain 2: B23 chain 2 with V136C, L176S, I180T
chain 3: not shown
chain 4: not shown
B33: PL-4 (bispecific antibody)
chain 1: not shown
chain 2: B23 chain 2 with A142C, L176S, I180T
chain 3: not shown
chain 4: not shown
B34: PL-10 (bispecific antibody)
chain 1: not shown
chain 2: B23 chain 2 with A142C, L176S, I180T
chain 3: not shown
chain 4: not shown

Substitutions are numbered along the chain they refer to.

What is called EC50 is the concentration needed to bring the measured effect to its halfway point.

One assay addresses T1, rat CGRP. Kind of assay: ELISA, coated CGRP. The procedure: (§1) In this test example, the abilities of the chimeric antibodies and humanized antibodies of C1 #, C9 #, C21 #, and C28 #to bind to human CGRP and rat CGRP were assessed using ELISAs. Plates were coated with […] human CGRP and rat CGRP, respectively, and blocked, and the antibodies, serially diluted, were then added. The plates were incubated for 1 h and washed, and a horseradish peroxidase-labeled anti-human Fc secondary antibody was then added. After incubation, color development was performed. […] The plates were incubated for 1 h and washed, and the antibodies, serially diluted, were then added. The plates were incubated for 1 h and washed, and a horseradish peroxidase-labeled streptavidin secondary antibody was then added. After incubation, color development was performed.
Molecule B1 displayed a half-maximal effective concentration (EC50) of 3.1 nM.

For B2, the response was half-maximal at 2.44 nM (EC50).

B3 returned a half-maximal effective concentration (EC50) of 1.97 nM.

For B4, the EC50 is 2.38 nM.

The molecule B5 showed a half-maximal effective concentration (EC50) of 9.27 nM.

Take B6: the EC50 came out at 6.28 nM.

With B7, the EC50 was found to be 4.27 nM.

Turning to B8, the half-maximal effective concentration (EC50) was determined as 2.72 nM.

The molecule B9 had a concentration for a half-maximal effect (EC50) of 5.26 nM.

Consider B10, for which the midpoint of the response, the EC50, lay at 5.68 nM.

In turn, B11 registered a concentration for a half-maximal effect (EC50) of 5.3 nM.

B12: the EC50 turned out to be 3.57 nM.

B13 came in with a concentration for a half-maximal effect (EC50) of 4.2 nM.

Turning to B14, the concentration giving a half-maximal response (EC50) worked out at 4.32 nM.

Take B15: it took 6.45 nM to reach a half-maximal effect (EC50).

Take B16: the midpoint of the response, the EC50, lay at 3.72 nM.

Molecule B17 yielded a 50% effective concentration (EC50) of 3.97 nM.

With B18, the EC50 amounted to 7.36 nM.

The molecule B19 came in with a concentration for a half-maximal effect (EC50) of 3.13 nM.

B20 showed an EC50 of 7.94 nM.

The molecule B21 yielded an EC50 of 4.48 nM.

B22 came in with a half-maximal effective concentration (EC50) of 3.86 nM.

In the next assay the target is T2, human CGRP. Kind of assay: ELISA, coated CGRP. As for the experimental part:
as §1
On to B1, for which the concentration giving a half-maximal response (EC50) was found to be 1.83 nM.

With B2, the EC50 stood at 2.72 nM.

The molecule B3 had an EC50 of 1.39 nM.

The molecule B4 had an EC50 of 2.61 nM.

B5 displayed an EC50 of 3.4 nM.

The molecule B6 came in with a half-maximal effective concentration (EC50) of 1.34 nM.

Regarding B7, it took 1.3 nM to reach a half-maximal effect (EC50).

The molecule B8 had an EC50 of 1.47 nM.

In turn, B9 returned an EC50 of 2.57 nM.

As to B10, the half-maximal effective concentration (EC50) is 2.8 nM.

With B11, the concentration for a half-maximal effect (EC50) came out at 1.58 nM.

Take B12: the 50% effective concentration (EC50) is 1.3 nM.

B13 gave an EC50 of 1.25 nM.

B14 came in with a 50% effective concentration (EC50) of 1.41 nM.

Molecule B15 showed a concentration for a half-maximal effect (EC50) of 1.43 nM.

The molecule B16 yielded a concentration giving a half-maximal response (EC50) of 1.58 nM.

For the molecule B17, the EC50 was found to be 1.65 nM.

B18 gave an EC50 of 2.9 nM.

The molecule B19 had an EC50 of 1.33 nM.

B20 yielded a 50% effective concentration (EC50) of 3.57 nM.

As to B21, the EC50 came out at 1.29 nM.

Consider B22, for which the concentration giving a half-maximal response (EC50) was 2.54 nM.

The target in another assay is hPDL1 (human, UniProt Q9NZQ7 19-238). Description: ELISA of Test Example 4 of WO2021139758.
Chain of hPDL1 (Q9NZQ7 19-238 limits assumed): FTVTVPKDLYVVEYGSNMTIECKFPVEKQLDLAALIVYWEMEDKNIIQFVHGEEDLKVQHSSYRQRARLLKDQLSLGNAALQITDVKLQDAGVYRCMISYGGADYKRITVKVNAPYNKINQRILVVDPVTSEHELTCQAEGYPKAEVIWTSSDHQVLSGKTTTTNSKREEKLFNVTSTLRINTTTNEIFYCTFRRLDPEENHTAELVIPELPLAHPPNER
Molecule B23 registered an EC50 of 1.6 nM.

In turn, B24 yielded an EC50 of 0.5 nM.

As for B25, a half-maximal response (EC50) required 0.6 nM.

In turn, B26 displayed an EC50 of 0.7 nM.

The molecule B27 registered an EC50 of 0.5 nM.

B28: the half-maximal effective concentration (EC50) is 0.5 nM.

As to B29, the half-maximal effective concentration (EC50) was found to be 1.4 nM.

Molecule B30 displayed a concentration giving a half-maximal response (EC50) of 0.6 nM.

Molecule B31 registered a 50% effective concentration (EC50) of 0.8 nM.

On to B32, for which the midpoint of the response, the EC50, lay at 0.6 nM.

Take B33: the concentration for a half-maximal effect (EC50) came out at 0.7 nM.

In the case of B34, the response was half-maximal at 0.6 nM (EC50).

For another assay, the target named is hCTLA4 (human, UniProt P16410 36-161). Kind of assay: ELISA of Test Example 4 of WO2021139758. In general terms: An ELISA detects its analyte on a solid surface through an enzyme-linked reagent.
Chain of hCTLA4 (P16410 36-161 limits assumed): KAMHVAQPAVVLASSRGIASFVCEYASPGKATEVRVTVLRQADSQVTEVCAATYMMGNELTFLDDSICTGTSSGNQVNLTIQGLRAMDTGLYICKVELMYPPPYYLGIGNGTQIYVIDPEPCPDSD
B23 came in with an EC50 of 16.5 nM.

For the molecule B24, the concentration for a half-maximal effect (EC50) turned out to be 8 nM.

As for B25, the EC50 was 7.9 nM.

For B26, the midpoint of the response, the EC50, lay at 6.7 nM.

Molecule B27 displayed a concentration giving a half-maximal response (EC50) of 7.3 nM.

Molecule B28 came in with an EC50 of 8 nM.

For the molecule B29, it took 14.5 nM to reach a half-maximal effect (EC50).

B30 had an EC50 of 5.6 nM.

B31 showed an EC50 of 5.3 nM.

For the molecule B32, the EC50 worked out at 5.5 nM.

In turn, B33 came in with an EC50 of 6.5 nM.

B34 registered an EC50 of 6.9 nM.

(Values after US20260176358A1 (JIANGSU HENGRUI PHARMACEUTICALS, published 2026).)
